Reference: patent US11053304 (CENTIVAX, dated 2021)
Where a chain is given by its changes, count along the chain named.

B1: COVID19_P20_C11 (scFv, V domains shown)
VH: EVQLVESGGGLVQPGGSLRLSCAASGFTFSSYSMNWVRQAPGKGLEWVSGISGSGDRTYYADSVKGRFTISRDNSKNTLYLQMNSLRAEDTAVYYCSMQRDNSRDYFPHYFHDMDVWGQGTLVTVSS
VL: DIVMTQSPLSLPVTPGEPASISCRSSQSLLYSDGDTYLDWYLQKPGQSPQLLIYLGSIRAPGVPDRFSGSGSGTDFTLKISRVEAEDVGVYYCMQSVQTPWTFGGGTKVEIKR
B2: COVID19_P08_D09 (scFv, V domains shown)
VH: EVQLVESGGGLVQPGGSLRLSCAASGFTFSTYAMHWVRQAPGKGLEWVAVISYDGNYQYYADSVKGRFTISRDNSKNTLYLQMNSLRAEDTAVYYCVTNLDNSRDYFPHYFHDMDVWGQGTLVTVSS
VL: not shown
B3: COVID19_P08_G07 (scFv, V domains shown)
VH: B2 VH with A33G, A49S, V50T, Y53G, D54N, N56V, Y57S, Q58T, Y59S, L100M
VL: DIVMTQSPLSLPVTPGEPASISCRSSQSLVYSDGYTYLNWYLQKPGQSPQLLIYQVSNRASGVPDRFSGSGSGTDFTLKISRVEAEDVGVYYCMQALQTPALTFGGGTKVEIKR
B4: COVID19_P19_B04 (scFv, V domains shown)
VH: EVQLVESGGGLVQPGGSLRLSCAASGITFNNYAMTWVRQAPGKGLEWVSGISGSGGSTYYADSVKGRFTISRDNSRNTLYLQMNSLRAEDTAVYYCVTQRDNPVDYFPHYFHDMDVWGQGTLVTVSS
VL: B1 VL with S96A, V97L, T99V
B5: COVID19_P08_C08 (scFv, V domains shown)
VH: EVQLVESGGGLVQPGGSLRLSCAASGFTFRNYAMHWVRQAPGKGLEWVSAVSSSGGSPYYADSVKGRFTISRDNSKNTLYLQMNSLRAEDTAVYYCVTNMDNSRDYFPHYFHDMDVWGQGTLVTVSS
VL: DIVMTQSPLSLPVTPGEPASISCRSSQSLVHSDGDNYLNWYLQKPGQSPQLLIYSGSYRASGVPDRFSGSGSGTDFTLKISRVEAEDVGVYYCMQGTHWPLTFGGGTKVEIKR
B6: COVID19_P07_H01 (scFv, V domains shown)
VH: B2 VH with S30R, T31S, Y53S, N56R, Y57N, Q58K, Y59F, L100M
VL: DIVMTQSPLSLPVTPGEPASISCRSSQSLLHSNGNNYMDWYLQKPGQSPQLLIYLASQRASGVPDRFSGSGSGTDFTLKISRVEAEDVGVYYCMQALQRPLTFGGGTKVEIKR
B7: COVID19_P08_C12 (scFv, V domains shown)
VH: B5 VH with R30N, M34L, A50G, S53W, S54N, G56S, S57R, P58T, Y59H, M100L
VL: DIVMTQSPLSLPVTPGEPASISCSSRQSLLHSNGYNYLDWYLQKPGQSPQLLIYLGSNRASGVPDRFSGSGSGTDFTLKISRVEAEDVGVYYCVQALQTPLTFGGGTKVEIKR
B8: COVID19_P19_B08 (scFv, V domains shown)
VH: EVQLVESGGGLVQPGGSLRLSCAASGFTFSDHYMDWVRQAPGKGLEWVAAIGASGESTYYADSVKGRFTISRDNSKNTLYLQMNSLRAEDTAVYYCVTQRDNSRDYFPLWFHDMDVWGQGTLVTVSS
VL: B1 VL with V97I
B9: COVID19_P19_H07 (scFv, V domains shown)
VH: B5 VH with R30G, N31T, Y32S, M34V, H35S, V51I, S53G, P58T, N99Q, M100R
VL: B1 VL with S96G, V97L, Q98E
B10: COVID19_P20_B06 (scFv, V domains shown)
VH: B2 VH with S30H, T31D, I51T, Y57T, Q58K
VL: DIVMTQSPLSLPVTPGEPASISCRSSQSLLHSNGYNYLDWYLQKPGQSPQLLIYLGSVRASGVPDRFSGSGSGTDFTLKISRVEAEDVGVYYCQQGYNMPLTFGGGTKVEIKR
B11: COVID19_P07_D09 (scFv, V domains shown)
VH: B5 VH with T28S, R30S, N31R, A33G, A50G, V51I, S53A, S54D, S57T, P58A
VL: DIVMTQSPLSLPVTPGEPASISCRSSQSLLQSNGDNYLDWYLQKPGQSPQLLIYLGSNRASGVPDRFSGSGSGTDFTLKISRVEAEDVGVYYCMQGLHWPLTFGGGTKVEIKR
B12: COVID19_P07_F02 (scFv, V domains shown)
VH: EVQLVESGGGLVQPGGSLRLSCAASGFAFSNYGMHWIRQAPGKGLEWVSGIDGSGGTAHYADSVKGRFTISRDNSKNTLYLQMNSLRAEDTAVYYCVTNMDNSRDYFPHYFHDMDVWGQGTLVTVSS
VL: not shown
B13: COVID19_P07_G02 (scFv, V domains shown)
VH: B2 VH with T28R, S30N, Y53S, D54S, N56R, Y57N, Q58K, Y59F, L100M
VL: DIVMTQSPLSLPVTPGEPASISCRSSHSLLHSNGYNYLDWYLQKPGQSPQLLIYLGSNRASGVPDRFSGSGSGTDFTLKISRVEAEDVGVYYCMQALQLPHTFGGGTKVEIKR
B14: COVID19_P08_B12 (scFv, V domains shown)
VH: B2 VH with T28S, S30R, T31S, A33G, Y53S, N56R, Y57N, Q58K, Y59F, L100F
VL: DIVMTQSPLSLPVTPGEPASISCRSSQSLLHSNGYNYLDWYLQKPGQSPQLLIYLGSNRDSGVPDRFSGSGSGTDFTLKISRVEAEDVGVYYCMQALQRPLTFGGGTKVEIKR
B15: COVID19_P08_F04 (scFv, V domains shown)
VH: EVQLVESGGGLVQPGGSLRLSCAASGFRFDDFGMHWYRQAPGKGLEWVSATSGGGSITYYADSVKGRFTISRDNSKNTLYLQMNSLRAEDTAVYYCVTNMDNSRDYFPHYFHDMDVWGQGTLVTVSS
VL: not shown
B16: COVID19_P19_C07 (scFv, V domains shown)
VH: B2 VH with T28P, T31L, A33G, S52T, Y53S, N56R, Y57S, Q58K, Y59F
VL: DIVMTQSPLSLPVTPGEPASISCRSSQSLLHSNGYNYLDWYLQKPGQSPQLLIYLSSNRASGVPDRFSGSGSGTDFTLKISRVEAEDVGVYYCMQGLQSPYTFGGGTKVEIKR

The binders below were run against T1, SARS-CoV-2 Receptor Binding Domain (RBD) protein (SARS-CoV-2, UniProt P0DTC2 319-541) (assay: SPR, scFv captured via anti-V5, RBD as analyte).

Question: Which Kd does the source give for B1 here?
Answer: 2.94 nM

Question: What about the koff of the same binder?
Answer: 0.000607 s⁻¹

Question: What about the kon of the same binder?
Answer: 207000 M⁻¹ s⁻¹

Question: How did the Kd turn out when B2 was run?
Answer: 1.5 nM

Question: What about the koff of the same binder?
Answer: 5.7e-05 s⁻¹

Question: What about the kon of the same binder?
Answer: 38000 M⁻¹ s⁻¹

Question: Which results are given for B3?
Answer: Kd: 10.6 nM; koff: 0.00072 s⁻¹; kon: 68000 M⁻¹ s⁻¹

Question: Which results are given for B4?
Answer: Kd: 22 nM; koff: 0.00795 s⁻¹; kon: 361000 M⁻¹ s⁻¹

Question: Which results are given for B5?
Answer: Kd: 1.8 nM; koff: 5.7e-05 s⁻¹; kon: 32000 M⁻¹ s⁻¹

Question: Which Kd does the source give for B6 here?
Answer: 2.9 nM

Question: What about the koff of the same binder?
Answer: 5.7e-05 s⁻¹

Question: And the kon?
Answer: 19900 M⁻¹ s⁻¹

Question: With B7 as the binder, how does the Kd read?
Answer: 1.1 nM

Question: What about the koff of the same binder?
Answer: 5.7e-05 s⁻¹

Question: And the kon?
Answer: 53000 M⁻¹ s⁻¹

Question: Which results are given for B8?
Answer: Kd: 32.7 nM; koff: 0.00685 s⁻¹; kon: 209000 M⁻¹ s⁻¹

Question: B9 was tested. Which Kd did it give?
Answer: 37 nM

Question: And the koff?
Answer: 0.00786 s⁻¹

Question: And the kon?
Answer: 212000 M⁻¹ s⁻¹

Question: With B10 as the binder, how does the Kd read?
Answer: 5.1 nM

Question: And the koff?
Answer: 0.000439 s⁻¹

Question: And the kon?
Answer: 86000 M⁻¹ s⁻¹

Question: With B11 as the binder, how does the Kd read?
Answer: 1.8 nM

Question: And the koff?
Answer: 5.7e-05 s⁻¹

Question: What about the kon of the same binder?
Answer: 32500 M⁻¹ s⁻¹

Question: Which Kd does the source give for B12 here?
Answer: 10.1 nM

Question: And the koff?
Answer: 0.00018 s⁻¹

Question: And the kon?
Answer: 17800 M⁻¹ s⁻¹

Question: How did the Kd turn out when B13 was run?
Answer: 4.8 nM

Question: What about the koff of the same binder?
Answer: 5.7e-05 s⁻¹

Question: And the kon?
Answer: 11900 M⁻¹ s⁻¹

Question: What does the source list for B14?
Answer: Kd: 3.5 nM; koff: 5.7e-05 s⁻¹; kon: 16000 M⁻¹ s⁻¹

Question: With B15 as the binder, how does the Kd read?
Answer: 2.04 nM

Question: What about the koff of the same binder?
Answer: 0.00019 s⁻¹

Question: And the kon?
Answer: 93000 M⁻¹ s⁻¹

Question: With B16 as the binder, how does the Kd read?
Answer: 3.6 nM

Question: And the koff?
Answer: 5.7e-05 s⁻¹

Question: And the kon?
Answer: 16000 M⁻¹ s⁻¹

Each binder was assayed against SARS-CoV-1 Receptor Binding Domain (RBD) protein (SARS-CoV-1, UniProt P59594 306-527) (assay: SPR, scFv captured via anti-V5, RBD as analyte).

Question: Does B1 bind?
Answer: no binding (tested: up to 300 nM)

Question: Does B2 bind?
Answer: no binding (tested: up to 300 nM)

Question: Does B3 bind?
Answer: no binding (tested: up to 300 nM)

Question: Does B4 bind?
Answer: no binding (tested: up to 300 nM)

Question: Does B5 bind?
Answer: no binding (tested: up to 300 nM)

Question: Does B6 bind?
Answer: no binding (tested: up to 300 nM)

Question: Does B7 bind?
Answer: no binding (tested: up to 300 nM)

Question: Does B8 bind?
Answer: no binding (tested: up to 300 nM)

Question: Does B9 bind?
Answer: no binding (tested: up to 300 nM)

Question: Does B10 bind?
Answer: no binding (tested: up to 300 nM)

Question: Does B11 bind?
Answer: no binding (tested: up to 300 nM)

Question: Does B12 bind?
Answer: no binding (tested: up to 300 nM)

Question: Does B13 bind?
Answer: no binding (tested: up to 300 nM)

Question: Does B14 bind?
Answer: no binding (tested: up to 300 nM)

Question: Does B15 bind?
Answer: no binding (tested: up to 300 nM)

Question: Does B16 bind?
Answer: no binding (tested: up to 300 nM)

Each binder was assayed against MERS Receptor Binding Domain (RBD) protein (MERS coronavirus, UniProt K9N5Q8 367-606) (assay: SPR, scFv captured via anti-V5, RBD as analyte).

Question: Does B1 bind?
Answer: no binding (tested: up to 300 nM)

Question: Does B2 bind?
Answer: no binding (tested: up to 300 nM)

Question: Does B3 bind?
Answer: no binding (tested: up to 300 nM)

Question: Does B4 bind?
Answer: no binding (tested: up to 300 nM)

Question: Does B5 bind?
Answer: no binding (tested: up to 300 nM)

Question: Does B6 bind?
Answer: no binding (tested: up to 300 nM)

Question: Does B7 bind?
Answer: no binding (tested: up to 300 nM)

Question: Does B8 bind?
Answer: no binding (tested: up to 300 nM)

Question: Does B9 bind?
Answer: no binding (tested: up to 300 nM)

Question: Does B10 bind?
Answer: no binding (tested: up to 300 nM)

Question: Does B11 bind?
Answer: no binding (tested: up to 300 nM)

Question: Does B12 bind?
Answer: no binding (tested: up to 300 nM)

Question: Does B13 bind?
Answer: no binding (tested: up to 300 nM)

Question: Does B14 bind?
Answer: no binding (tested: up to 300 nM)

Question: Does B15 bind?
Answer: no binding (tested: up to 300 nM)

Question: Does B16 bind?
Answer: no binding (tested: up to 300 nM)

Molecular target: T1, SARS-CoV-2 Receptor Binding Domain …
Assay: SPR, scFv captured via anti-V5, RBD as analyte
Remark: another data set of the same source

Question: For B1, which Kd is on record?
Answer: < 50 nM

Question: B2 was tested. Which Kd did it give?
Answer: < 50 nM

Question: With B3 as the binder, how does the Kd read?
Answer: < 50 nM

Question: How did the Kd turn out when B4 was run?
Answer: < 50 nM

Question: For B5, which Kd is on record?
Answer: < 50 nM

Question: For B6, which Kd is on record?
Answer: < 50 nM

Question: With B7 as the binder, how does the Kd read?
Answer: < 50 nM

Question: With B8 as the binder, how does the Kd read?
Answer: < 50 nM

Question: How did the Kd turn out when B9 was run?
Answer: < 50 nM

Question: With B10 as the binder, how does the Kd read?
Answer: < 50 nM

Question: B11 was tested. Which Kd did it give?
Answer: < 50 nM

Question: With B12 as the binder, how does the Kd read?
Answer: < 50 nM

Question: B13 was tested. Which Kd did it give?
Answer: < 50 nM

Question: B14 was tested. Which Kd did it give?
Answer: < 50 nM

Question: B15 was tested. Which Kd did it give?
Answer: < 50 nM

Question: With B16 as the binder, how does the Kd read?
Answer: < 50 nM
